Consider three molecules from publication PMC11947305 (Nature Communications, 2025).

The labels stand for the following.
B1: HPS1 (untagged human HPS1, residues 1-700) (natural protein)
chain: MKCVLVATEGAEVLFYWTDQEFEESLRLKFGQSENEEEELPALEDQLSTLLAPVIISSMTMLEKLSDTYTCFSTENGNFLYVLHLFGECLFIAINGDHTESEGDLRRKLYVLKYLFEVHFGLVTVDGHLIRKELRPPDLAQRVQLWEHFQSLLWTYSRLREQEQCFAVEALERLIHPQLCELCIEALERHVIQAVNTSPERGGEEALHAFLLVHSKLLAFYSSHSASSLRPADLLALILLVQDLYPSESTAEDDIQPSPRRARSSQNIPVQQAWSPHSTGPTGGSSAETETDSFSLPEEYFTPAPSPGDQSSGSTIWLEGGTPPMDALQIAEDTLQTLVPHCPVPSGPRRIFLDANVKESYCPLVPHTMYCLPLWQGINLVLLTRSPSAPLALVLSQLMDGFSMLEKKLKEGPEPGASLRSQPLVGDLRQRMDKFVKNRGAQEIQSTWLEFKAKAFSKSEPGSSWELLQACGKLKRQLCAIYRLNFLTTAPSRGGPHLPQHLQDQVQRLMREKLTDWKDFLLVKSRRNITMVSYLEDFPGLVHFIYVDRTTGQMVAPSLNCSQKTSSELGKGPLAAFVKTKVWSLIQLARRYLQKGYTTLLFQEGDFYCSYFLWFENDMGYKLQMIEVPVLSDDSVPIGMLGGDYYRKLLRYYSKNRPTEAVRCYELLALHLSVIPTDLLVQQAGQLARRLWEASRIPLL
B3: GST-tagged human HPS4 Δ289-518 (natural protein)
chain: MATSTSTEAKSASWWNYFFLYDGSKVKEEGDPTRAGICYFYPSQTLLDQQELLCGQIAGVVRCVSDISDSPPTLVRLRKLKFAIKVDGDYLWVLGCAVELPDVSCKRFLDQLVGFFNFYNGPVSLAYENCSQEELSTEWDTFIEQILKNTSDLHKIFNSLWNLDQTKVEPLLLLKAARILQTCQRSPHILAGCILYKGLIVSTQLPPSLTAKVLLHRTAPQEQRLPTGEDAPQEHGAALPPNVQIIPVFVTKEEAISLHEFPVEQMTRSLASPAGLQDGSAQHHPKGGGPSADGISSRLTPAESCMGLVRMNLYTHCVKGLVLSLLAEEPLLGDSAAIEEVYHSSLASLNGLEVHLKETLPRDEAASTSSTYNFTHYDRIQSLLMANLPQVATPQDRRFLQAVSLMHSEFAQLPALYEMTVRNASTAVYACCNPIQETYFQQLAPAARSSGFPNPQDGAFSLSGKAKQKLLKHGVNLL

The target of test [1] is T1, GST-tagged human HPS4 (residues 1-708) (human, UniProt Q9NQG7 1-708).
T1 sequence: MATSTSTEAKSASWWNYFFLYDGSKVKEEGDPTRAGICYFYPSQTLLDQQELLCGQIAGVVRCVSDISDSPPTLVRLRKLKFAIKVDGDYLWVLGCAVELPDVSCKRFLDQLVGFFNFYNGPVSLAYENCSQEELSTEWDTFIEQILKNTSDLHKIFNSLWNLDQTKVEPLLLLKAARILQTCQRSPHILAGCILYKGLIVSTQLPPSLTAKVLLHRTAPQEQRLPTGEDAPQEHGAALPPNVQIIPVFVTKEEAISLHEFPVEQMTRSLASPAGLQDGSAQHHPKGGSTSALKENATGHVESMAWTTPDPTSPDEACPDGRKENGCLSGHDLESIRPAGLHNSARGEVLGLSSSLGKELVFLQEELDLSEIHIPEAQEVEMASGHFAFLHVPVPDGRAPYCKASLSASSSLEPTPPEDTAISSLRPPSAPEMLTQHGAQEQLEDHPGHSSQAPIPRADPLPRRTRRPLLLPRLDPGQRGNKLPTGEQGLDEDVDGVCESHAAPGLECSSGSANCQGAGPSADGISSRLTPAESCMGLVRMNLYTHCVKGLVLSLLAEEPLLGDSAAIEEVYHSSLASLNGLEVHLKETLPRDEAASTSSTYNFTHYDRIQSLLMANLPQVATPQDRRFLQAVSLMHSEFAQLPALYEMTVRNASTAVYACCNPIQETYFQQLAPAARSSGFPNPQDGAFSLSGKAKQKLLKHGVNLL
The test is described as follows: SEC. In general terms: SEC sorts molecules by how far they enter the pores of the column.

Test [2] has as its target B3. The test is described as follows: SEC.
Test [3] concerns the target T2, Flag-tagged HPS4 wild-type (human, UniProt Q9NQG7 1-708).
T2 sequence: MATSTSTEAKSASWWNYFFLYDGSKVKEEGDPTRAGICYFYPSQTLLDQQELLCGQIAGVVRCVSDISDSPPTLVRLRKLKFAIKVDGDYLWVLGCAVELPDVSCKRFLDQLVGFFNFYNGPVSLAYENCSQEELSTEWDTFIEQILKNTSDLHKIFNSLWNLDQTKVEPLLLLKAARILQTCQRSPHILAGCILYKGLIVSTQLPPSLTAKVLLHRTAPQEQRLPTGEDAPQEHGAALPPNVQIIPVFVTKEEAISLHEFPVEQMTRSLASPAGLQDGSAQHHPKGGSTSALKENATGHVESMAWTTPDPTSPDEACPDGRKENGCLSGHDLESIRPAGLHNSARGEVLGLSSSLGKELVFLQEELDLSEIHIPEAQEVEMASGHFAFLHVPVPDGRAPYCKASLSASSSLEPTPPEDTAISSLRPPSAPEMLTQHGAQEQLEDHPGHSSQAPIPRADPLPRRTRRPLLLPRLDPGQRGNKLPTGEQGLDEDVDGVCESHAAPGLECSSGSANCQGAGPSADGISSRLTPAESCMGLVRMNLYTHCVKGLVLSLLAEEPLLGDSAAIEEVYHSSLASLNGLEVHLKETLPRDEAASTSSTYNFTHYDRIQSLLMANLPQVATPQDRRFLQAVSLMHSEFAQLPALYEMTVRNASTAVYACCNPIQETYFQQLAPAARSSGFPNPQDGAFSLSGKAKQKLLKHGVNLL
As to the kind of experiment: pull-down.

The target in test [4] is B1. The test is described as follows: cryo-EM structure.

The term stoichiometry N denotes a count of units in the complex or per binding partner. Turning to B1, the binding result in test [1] was “binds”. For the same molecule, the “stoichiometry N” value in test [2] came out at 1.

B2: His-tagged mouse Rab9A Q66L (residues 2-199) (natural protein)
chain: AGKSSLFKIILLGDGGVGKSSLMNRYVTNKFDSQLFHTIGVEFLNKDLEVDGHFVTMQIWDTAGLERFRSLRTPFYRGSDCCLLTFSVDDSQSFQNLSNWKKEFIYYADVKEPESFPFVILGNKTDIKERQVSTEEAQAWCKDNGDYPYFETSAKDSTNVAAAFEEAVRRILATEDRSEHLIQTDTVNLHRKPKPNSS
Turning to B2, the binding result in test [3] was “binds”. Take B3: the binding result in test [4] is on record as “binds”.
